14 molecules from patent US20200283773, “NUCLEOLIN-TARGETING APTAMERS AND METHODS OF USING THE SAME” (Duke University, published 2020) can be followed below.

Holding throughout (details): label: 32P end label
The target of data set [1] is T1, nucleolin (NCL), recombinant (Homo sapiens, UniProt P19338 SEQ:1-710). Put plainly: filter; among truncates with best affinity; values only in figure.
Data set [2] has as its target T1, nucleolin (NCL), recombinant. As to the kind of experiment: filter; Ev2 described as non-binding aptamer control.
Data set [3] has the same target. Put plainly: filter; 20 mM Hepes, 150 mM NaCl, 2 mM CaCl2, 0.01% BSA, 37 C; Bmax 33.6%, R2 0.6520. On the procedure:
(§1) Aptamers were end-labeled with ³²P. Nucleolin protein was serially diluted in 20 mM Hepes, 150 mM NaCl, 2 mM CaCl₂ and 0.01% bovine serum albumin and incubated with a trace amount of the ³²P-labeled RNA pools. After incubation at 37° C., unbound RNA was captured on a nylon membrane and RNA-nucleolin complexes captured on a nitrocellulose membrane. The fraction of protein-bound RNA was determined via phosphorimaging of the nitrocellulose and nylon membranes.

Data set [4] has the same target. As to the kind of experiment: filter; similar affinity to parent Ev3.
Data set [5] has the same target. Put plainly: filter; 20 mM Hepes, 150 mM NaCl, 2 mM CaCl2, 0.01% BSA, 37 C; Bmax 23.08%. On the procedure:
as §1

Data set [6] shares this target. As to the kind of experiment: filter; 20 mM Hepes, 150 mM NaCl, 2 mM CaCl2, 0.01% BSA, 37 C; Bmax 32.76%. On the procedure:
as §1

Data set [7] has the same target. As to the kind of experiment: filter; 20 mM Hepes, 150 mM NaCl, 2 mM CaCl2, 0.01% BSA, 37 C; Bmax 25.2%. On the procedure: as §1
The target is the same in data set [8]. As to the kind of experiment: filter; 20 mM Hepes, 150 mM NaCl, 2 mM CaCl2, 0.01% BSA, 37 C; Bmax 53.6%. On the procedure: as §1

The term Kd denotes a measure of binding affinity in units of concentration.

T1 sequence (P19338 whole entry, the tested form may be a part): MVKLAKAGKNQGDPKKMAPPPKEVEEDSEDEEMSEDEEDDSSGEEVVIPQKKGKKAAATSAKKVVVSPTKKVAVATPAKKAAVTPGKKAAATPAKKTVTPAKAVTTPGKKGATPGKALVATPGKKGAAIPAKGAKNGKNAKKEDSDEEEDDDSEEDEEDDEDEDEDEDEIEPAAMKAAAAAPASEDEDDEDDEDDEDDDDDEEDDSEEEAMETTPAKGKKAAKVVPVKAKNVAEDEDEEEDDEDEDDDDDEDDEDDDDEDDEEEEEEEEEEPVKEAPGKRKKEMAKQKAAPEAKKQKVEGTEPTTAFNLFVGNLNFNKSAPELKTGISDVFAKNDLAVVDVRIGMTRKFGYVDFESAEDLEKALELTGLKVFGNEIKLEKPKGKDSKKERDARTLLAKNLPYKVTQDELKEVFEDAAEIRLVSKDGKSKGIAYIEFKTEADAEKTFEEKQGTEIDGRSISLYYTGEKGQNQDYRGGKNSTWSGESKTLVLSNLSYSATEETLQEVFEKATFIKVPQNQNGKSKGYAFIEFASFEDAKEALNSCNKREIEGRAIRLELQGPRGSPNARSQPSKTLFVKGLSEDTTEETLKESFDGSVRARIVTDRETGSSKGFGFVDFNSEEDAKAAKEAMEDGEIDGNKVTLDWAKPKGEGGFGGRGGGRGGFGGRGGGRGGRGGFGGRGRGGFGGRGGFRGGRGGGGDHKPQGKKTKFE

B1: Fv3 (ssRNA)
RNA: GGGAGAGAGGAAGAGGGAUGGGACCACGCGCCAACGUGUCAGCUACACGCCGUGUUCCCCGG
modifications: 2'-F pyrimidines
B1: in data set [1], the binding result was “binds”.

B2: Bv1 (ssRNA)
RNA: GGAAGAGGGAUGGGUGCCAGCUUUGCAUACCACGUGCAAUUCACUCCACCCGUCAC
modifications: 2'-F pyrimidines
On to B2, for which, in data set [1], the binding result is reported as “binds”. Consider GGGAUGGGCACGGUCCAGCGCUAACUGUACCUGCUGUGCCACCCACCGC (ssRNA, 2'-F pyrimidines) [Ev2], for which the binding result in data set [2] is recorded as “no binding”.

B3: FAM-F (ssRNA)
RNA: GGGAGAGAGGAAGAGGGAUGGGACCACGCGCCAACGUGUCAGCUACACGCCGUGUUCCCCGGCAUAACCCAGAGGUCGAUAGUACUGGAUCCCCCC
modifications: 2'-F pyrimidines
As to B3, the Kd in data set [3] was 0.37 nM.

B4: Ev3.min24 (ssRNA)
RNA: GGGAGGAAGAGGGAUGGGCACGGUCCAGCGCACUGUACCUGCUGUGCCACCC
modifications: 2'-F pyrimidines
For the molecule B4, in data set [4], the binding result is reported as “binds”. The same measure, in the same setting: the same measure for GGGAUGGGCACGGUCCAGCGCUAACUGUACCUGCUGUGCCACCC (ssRNA, 2'-F pyrimidines) [Ev3.min21]: “binds”.

B5: Ev5 (ssRNA)
RNA: GGAAGAGGGAUGGGCACGGUCCAGCGCUAACUGUACCUGCUGUGCCACCCACC
modifications: 2'-F pyrimidines
Take B5: the binding result in data set [1] (DL650 for flow) is “binds”.

B6: FAM-E (ssRNA)
RNA: GGGAGAGAGGAAGAGGGAUGGGCACGGUCCAGCGCUAACUGUACCUGCUGUGCCACCCACCGCAUAACCCAGAGGUCGAUAGUACUGGAUCCCCCC
modifications: 2'-F pyrimidines
Take B6: the Kd in data set [5] came out at 1.69 nM.

B7: Ev3 (ssRNA)
RNA: GGGAGAGAGGAAGAGGGAUGGGCACGGUCCAGCGCUAACUGUACCUGCUGUGCCACCCACCG
modifications: 2'-F pyrimidines
In the case of B7, the binding result in data set [1] (DL650 for flow) is given as “binds”.

B8: FAM-C (ssRNA)
RNA: GGGAGAGAGGAAGAGGGAUGGGAAGAUCUGCUAAGUGCACGCACAAUCACCAUCGAGCGUCUCAUAACCCAGAGGUCGAUAGUACUGGAUCCCCCC
modifications: 2'-F pyrimidines
As for B8, the Kd in data set [6] was determined as 0.428 nM.

B9: Dv2 (ssRNA)
RNA: GGGAGAGAGGAAGAGGGAUGGGCACAUGGUACGCCCAAAGCGAGGCCCGCUGCGUAGUGCC
modifications: 2'-F pyrimidines
B9: in data set [1], the binding result is listed as “binds”.

B10: Ev3.min22 (ssRNA)
RNA: GGGAGGAAGAGGGAUGGGCACGGUCCAGCGCUAACUGUACCUGCUGUGCCACCC
modifications: 2'-F pyrimidines
B10: the binding result in data set [4] is recorded as “binds”.

B11: FAM-B (ssRNA)
RNA: GGGAGAGAGGAAGAGGGAUGGGAGCCAGCUUUGCAUACCACGUGCAAUUCACUCCACCCGUCACAUAACCCAGAGGUCGAUAGUACUGGAUCCCCCC
modifications: 2'-F pyrimidines
Turning to B11, in data set [7], the Kd was 0.851 nM.

B12: FAM-D (ssRNA)
RNA: GGGAGAGAGGAAGAGGGAUGGGCACAUGGUACGCCCAAAGCGAGGCCCGCUGCGUAGUGCCAUAACCCAGAGGUCGAUAGUACUGGAUCCCCCC
modifications: 2'-F pyrimidines
As for B12, the Kd in data set [8] was determined as 0.586 nM.
